Consider 15 proteins from patent publication US20250027068.

Changes are numbered by the printed parent chain.

Sequences and labels used below:
B1: PRT-536 (protein)
chain: MANQEIRYSGDSEWANKKVWVYGITPAEEGAWLYSTYYLPWKKEYGWYDCNKRNPTADGMMCWAASASNLMHWWIAQNKRYIDLYGDRYKGPDKINFNGEQMFDVKEYIDPLDKPQESDIFQCFIDKSFADLSTKHEAGKGDEGINWFIHGIIPSYPAHGPTPVKLRYPYNPAGYFKDVFPRGDGVVLGGNNGDFKELGKERFNETIKDALANKKGIGLSIGPVNVRKSHVETMWGAEFDENGDVSYIYMADNNDRWGVGCIRLQIVYVEGATYTCYKTEIIPSDRPIPINRLVTVELGEEYWKQTNLEHHHHHH
B2: PRT-540 (protein)
chain: MANQEIRYSKNENPNVTIKWVHGIGEPTQAEKEKIEFYWYETNTTKFFNNRKVTHLGDSNQCWAKTASNMLHWWFVQNKENINKYIEKKNITGKINFNGEQMFDVKEGIDDNQEKEKSYIANTFRTKKAHNLSTKHKGDYIINGLAWYLYGLNNFKNAHGPTPVKKKPKFYGPALFKDVFNRGDGNTPIIEETDFKEYTKKEFEDTLSEALDSKKAIGINIYGSNVDYGHAITLWGAAFDEDENIIAIYVVDNNFKFENRIFPYGIWYEKEGRPYLFNYEINSFVKNRYVGEITTLDKGEAQWQETNLEHHHHHH
B3: PRT-546 (protein)
chain: MANQEIRYSEETPKTITSVWTKGVTPPTDFIKNEDVLHAPYIANQGWYDITKTFNGKDDLLCGAATAGNMLHWWFDQNKEEIENYLKKHPEKQKINFNGEQMFDVKEAIDTKDSQTDSALFEYFKDKAFPYLSTKHLGVFPDHVIDMFINGYRLSLTNHGPTPVKRGTKDPRGGIFDAVFTRGDQSKLLTSRHDFKEKTLNEISDLIKQELTEGKALGLSHTYANVRINHVINLWGADFNSEGNLEAIYVTDSDSNASIGMKKYYVGVNSAGKVAISAKEIEGDNIGAQVLGLFTLSTGQDIWEQTNLEHHHHHH
B4: PRT-551 (protein)
chain: B3 chain with K14S, K32Q, S191A, S270A, E304N
B5: PRT-548 (protein)
chain: B3 chain with S186T, S191A, S270A
B6: PRT-592 (protein)
chain: B3 chain with K14S, K32Q, E81Q, D113N, S241A, E304N
B7: PRT-560 (protein)
chain: B3 chain with K32Y, E81Q, N84R, G167Q, N201K, N240D, S241A
B8: PRT-286 (protein)
chain: MVTSVWTKGVTPPAKFTQGEDVFHAPYDANQGWYDITKTFNGKDDLLCGAATAGNMLHWWFDQNKEKIEAYLKKHPDKQKIMFGDQELLDVRKVINTKGDQTNSELFNYFRDKAFPNLSARRIGVMPDLVLDMFINGYYLNVYKTQTTDVNRTYQEKDRRGGIFDAVFTRGDQSKLLTSRHDFKEKNLKEISDLIKKELTEGKALGLSHTYANVRISHVINLWGADFDSNGNLKAIYVTDSDSNASIGMKKYFVGVNSSGKVAISAKEIKEDNIGAQVLGLFTLSTGQDSWNQTN
B9: PRT-287 (protein)
chain: B8 chain with D28V, T39E, S217G, F253G, S259A
B10: PRT-530 (protein)
chain: MANQEIRYSEETPKTITSVWTKGVTPPTDFIQNEDVLHAPYIANQGWYDITKTFNGKDDLLCGAATAGNMLHWWFDQNKEEIENYLKKHPEKQKINFNGEQMFDVKEAIDTKDSQTDSALFEYFKDKAFPYLSTKHLGVMPDLVLDMFINGYYLSVGKHGPTPVKRGTKDPRGGIFDAVFTRGDQSKLLTARHDFKEKTLNEISDLIKQELTEGKALALSHTYANVRINHVINLWGADFNSEGNLEAIYVTDSDSNASIGMKKYYVGVNAAGKVAISAKEIEGDNIGAQVLGLFTLSTGQDIWEQTNLEHHHHHH
B11: PRT-2 (protein)
chain: MANQEIRYSEVTPYHVTSVWTKGVTPPAKFTQGEDVFHAPYVANQGWYDITKTFNGKDDLLCGAATAGNMLHWWFDQNKEKIEAYLKKHPDKQKIMFGDQELLDVRKVINTKGDQTNSELFNYFRDKAFPGLSARRIGVMPDLVLDMFINGYYLNVYKTQTTDVNRTYQEKDRRGGIFDAVFTRGDQSKLLTSRHDFKEKNLKEISDLIKKELTEGKALGLSHTYANVRINHVINLWGADFDSNGNLKAIYVTDSDSNASIGMKKYFVGVNSAGKVAISAKEIKEDNIGAQVLGLFTLSTGQDSWNQTN
B12: PRT-41 (protein)
chain: MANQEIRYSEVTPYHVTSVWTKGVTPPANFTQGEDVFHAPYVANQGWYDITKTFNGKDDLLCGAATAGNMLHWWFDQNKDYIDRYLEEHPEKQKINFNGEQMFDVKEAIDTKNSQLDSKLFEYFKEKAFPYLSTKHLGVFPDLVLDMFINGYRLSLTNHGPTPVKEGSKDPRGGIFDAVFTRGDQSKLLTSRHDFKEKNLKEISDLIKKELTEGKALGLSHTYANVRINHVINLWGADFDSNGNLKAIYVTDSDSNASIGMKKYFVGVNSAGKVAISAKEIKEDNIGAQVLGLFTLSTGQDSWNQTN
B13: PRT-562 (protein)
chain: MANQEIRYSKATPSHITSVWTKGVTPPEQFIQNEDVLHAPYIANQGWYDITKTFNGKDDLLCGAATAGNMLHWWFDQNKEQIENYLKKHPEKQKINFNGEQMFDVKEAIDTKDSQTNSALFSYFKDKAFPYLSTKHLGVFPDHVIDMFINGYRLSLTNHGPTPVKEQTKDPRGGIFDAVFTRGDQSKLLTSRHDFKEKTLNEISQLIKQELTEGKALGLSHTYANVRINHVINLWGADFNAEGNLEAIYVTDSDSNASIGMKKYYVGVNSAGKVAISAKEIEGDNIGAQVLGLFTLSTGQDIWQQTNLEHHHHHH
B14: PRT-278 (protein)
chain: MVTSVWTKGVTPPTDFIYGEDVLHAPYKAGQGWYDITKLFNGKDNLLCGAATAGNMLHWWFDQNKEQIENYLKKHPEKQKIIFNNQELFDLKAAIDTKDSQLDSKLFDYFKEKAFPYLSTKHLGVFPDHVIDMFINGYRLSLTNHGPTPVKRGSKDKRGGIFDAVFTRGVQSKLLTNRHDLKNKTLKEISDLIKQELTEGKALGISHTYANVRINHVINLWGADFDAEGNLEAIYVTDSDTNPSIGMKKYFVGVNSSGKVAISAKEIEEDNIGAQVLGLFTLSTGQDIWNQTN
B15: PRT-279 (protein)
chain: B14 chain with D108E, K111L, Y235A, P243A

The series concerns the target pooled human IgG.
B1: the Enzyme Activity Endpoint Assay: Fab′2 turned out to be 0 ng/µL, the Enzyme Activity Endpoint Assay: Fc is 0 ng/µL, the Enzyme Activity Endpoint Assay: IgG stood at 1530 ng/µL and the Enzyme Activity Endpoint Assay: scIgG came out at 0 ng/µL.
Protein B2 displayed an Enzyme Activity Endpoint Assay: Fab′2 of 0 ng/µL, an Enzyme Activity Endpoint Assay: Fc of 0 ng/µL, an Enzyme Activity Endpoint Assay: IgG of 1490 ng/µL and an Enzyme Activity Endpoint Assay: scIgG of 0 ng/µL.
Turning to B3, the Enzyme Activity Endpoint Assay: Fab′2 was determined as 722 ng/µL, the Enzyme Activity Endpoint Assay: Fc turned out to be 390 ng/µL, the Enzyme Activity Endpoint Assay: IgG was determined as 0 ng/µL and the Enzyme Activity Endpoint Assay: scIgG was found to be 236 ng/µL.
The like results for B4 were, in that order, 444 ng/µL, 217 ng/µL, 0 ng/µL and 0 ng/µL.
The corresponding values for B5 are 727 ng/µL, 458 ng/µL, 0 ng/µL and 0 ng/µL.
The like results for B6 were, in that order, 664 ng/µL, 359 ng/µL, 0 ng/µL and 0 ng/µL.
In turn, B7 displayed an Enzyme Activity Endpoint Assay: Fab′2 of 210 ng/µL, an Enzyme Activity Endpoint Assay: Fc of 233 ng/µL, an Enzyme Activity Endpoint Assay: IgG of 41 ng/µL and an Enzyme Activity Endpoint Assay: scIgG of 312 ng/µL.
Protein B8 yielded an Enzyme Activity Endpoint Assay: Fab′2 of 650 ng/µL, an Enzyme Activity Endpoint Assay: Fc of 352 ng/µL, an Enzyme Activity Endpoint Assay: IgG of 0 ng/µL and an Enzyme Activity Endpoint Assay: scIgG of 0 ng/µL.
On to B9, for which the Enzyme Activity Endpoint Assay: Fab′2 was found to be 700 ng/µL, the Enzyme Activity Endpoint Assay: Fc turned out to be 392 ng/µL, the Enzyme Activity Endpoint Assay: IgG amounted to 0 ng/µL and the Enzyme Activity Endpoint Assay: scIgG worked out at 0 ng/µL.
The protein B10 came in with an Enzyme Activity Endpoint Assay: Fab′2 of 87 ng/µL, an Enzyme Activity Endpoint Assay: Fc of 225 ng/µL, an Enzyme Activity Endpoint Assay: IgG of 74 ng/µL and an Enzyme Activity Endpoint Assay: scIgG of 687 ng/µL.
The corresponding values for B11 are 47 ng/µL, 94 ng/µL, 21 ng/µL and 0 ng/µL.
Consider B12, for which the Enzyme Activity Endpoint Assay: Fab′2 amounted to 24 ng/µL, the Enzyme Activity Endpoint Assay: Fc worked out at 94 ng/µL, the Enzyme Activity Endpoint Assay: IgG was found to be 19 ng/µL and the Enzyme Activity Endpoint Assay: scIgG was 50 ng/µL.
In the case of B13, the Enzyme Activity Endpoint Assay: Fab′2 was found to be 705 ng/µL, the Enzyme Activity Endpoint Assay: Fc is 380 ng/µL, the Enzyme Activity Endpoint Assay: IgG came to 0 ng/µL and the Enzyme Activity Endpoint Assay: scIgG was 238 ng/µL.
The corresponding values for B14 are 547 ng/µL, 315 ng/µL, 0 ng/µL and 0 ng/µL.
The protein B15 registered an Enzyme Activity Endpoint Assay: Fab′2 of 574 ng/µL, an Enzyme Activity Endpoint Assay: Fc of 359 ng/µL, an Enzyme Activity Endpoint Assay: IgG of 48 ng/µL and an Enzyme Activity Endpoint Assay: scIgG of 0 ng/µL.
